± gives the standard deviation of the averaged measurements.
Experiment: total protein half-life in vivo (active degradation + dilution); higher = more stable protein
[1] = E. coli NCM3722 delta-hslV, growth: N-lim chemostat, doubling time 6 h
[2] = wild type E. coli NCM3722, growth: C-lim chemostat, doubling time 3 h
[3] = E. coli NCM3722 delta-clpP delta-lon delta-hslV, growth: N-lim chemostat, doubling time 6 h
[4] = E. coli NCM3722 delta-clpP, growth: N-lim chemostat, doubling time 6 h
[5] = E. coli NCM3722 delta-lon, growth: N-lim chemostat, doubling time 6 h
[6] = E. coli NCM3722 delta-smpB, growth: N-lim chemostat, doubling time 6 h
[7] = wild type E. coli NCM3722, growth: C-lim chemostat, doubling time 6 h
[8] = wild type E. coli NCM3722, growth: C-lim chemostat, doubling time 12 h
[9] = wild type E. coli NCM3722, growth: N-lim chemostat, doubling time 6 h
[10] = wild type E. coli NCM3722, growth: N-lim chemostat, doubling time 12 h
[11] = wild type E. coli NCM3722, growth: P-lim chemostat, doubling time 6 h
[12] = wild type E. coli NCM3722, growth: P-lim chemostat, doubling time 12 h

Sequence | total protein half-life in vivo [1] [h] | total protein half-life in vivo [2] [h] | total protein half-life in vivo [3] [h] | total protein half-life in vivo [4] [h] | total protein half-life in vivo [5] [h] | total protein half-life in vivo [6] [h] | total protein half-life in vivo [7] [h] | total protein half-life in vivo [8] [h] | total protein half-life in vivo [9] [h] | total protein half-life in vivo [10] [h] | total protein half-life in vivo [11] [h] | total protein half-life in vivo [12] [h]
MKKIGVAGLQREQIKKTIEATAPGCFEVFIHNDMEAAMKVKSGQLDYYIGACNTGAGAALSIAIAVIGYNKSCTIAKPGIKAKDEHIAKMIAEGKVAFGLSVEHVEHAIPMLINHLK | 4.29 | 3.02 | – | – | – | – | – | – | – | – | – | –
MWQAISRLLSEQLGEGEIELRNELPGGEVHAAWHLRYAGHDFFVKCDERELLPGFTAEADQLELLSRSKTVTVPKVWAVGADRDYSFLVMDYLPPRPLDAHSAFILGQQIARLHQWSDQPQFGLDFDNALSTTPQPNTWQRRWSTFFAEQRIGWQLELAAEKGIAFGNIDAIVEHIQQRLASHQPQPSLLHGDLWSGNCALGPDGPYIFDPACYWGDRECDLAMLPLHTEQPPQIYDGYQSVSPLPADFLERQPVYQLYTLLNRARLFGGQHLVIAQQSLDRLLAA | 3.84 ± 0.5 | 3.159 ± 0.0069 | 4.14 ± 0.66 | 3.457 ± 0.023 | 3.77 ± 0.099 | 3.3 ± 0.13 | 5.21 ± 0.11 | 9.56 ± 0.57 | 3.31 ± 0.31 | 5.08 ± 0.18 | 5.685 ± 0.017 | 11.2 ± 0.46
MQKIVIVANGAPYGSESLFNSLRLAIALREQESNLDLRLFLMSDAVTAGLRGQKPGEGYNIQQMLEILTAQNVPVKLCKTCTDGRGISTLPLIDGVEIGTLVELAQWTLSADKVLTF [P0AB52] | 4.94 ± 1.6 | 2.64 ± 0.25 | 5.73 ± 0.71 | 5.32 ± 0.28 | 5.96 ± 0.57 | 4.81 ± 0.086 | 6.4 ± 1.1 | 13.2 ± 0.93 | 5.55 ± 0.19 | 10.1 ± 0.94 | 5.43 | 12.5 ± 1.7
MSVMLQSLNNIRTLRAMAREFSIDVLEEMLEKFRVVTKERREEEEQQQRELAERQEKISTWLELMKADGINPEELLGNSSAAAPRAGKKRQPRPAKYKFTDVNGETKTWTGQGRTPKPIAQALAEGKSLDDFLI [P0ACG1] | 6.63 ± 0.19 | 3 ± 0.032 | 7.04 ± 1.3 | 6.38 ± 0.2 | 7.2 ± 0.27 | 5.86 ± 0.72 | 5.941 ± 0.033 | 8.33 ± 0.14 | 4.94 ± 0.73 | 12 ± 4 | 5.04 ± 1.5 | 11 ± 0.95
MMELMVVHPHIFWLSLGGLLLAAEMLGGNGYLLWSGVAAVITGLVVWLVPLGWEWQGVMFAILTLLAAWLWWKWLSRRVREQKHSDSHLNQRGQQLIGRRFVLESPLVNGRGHMRVGDSSWPVSASEDLGAGTHVEVIAIEGITLHIRAVSS [P0AAS3] | 5.57 ± 0.15 | 2.86 | 6.35 ± 0.63 | 6.38 ± 0.81 | 5.91 | 6.81 | > 8 | 10.5 ± 1.8 | 6.42 ± 0.38 | 11.1 ± 0.17 | 7.12 | 10.6 ± 0.41
MKKLKLHGFNNLTKSLSFCIYDICYAKTAEERDGYIAYIDELYNANRLTEILSETCSIIGANILNIARQDYEPQGASVTILVSEEPVDPKLIDKTEHPGPLPETVVAHLDKSHICVHTYPESHPEGGLCTFRADIEVSTCGVISPLKALNYLIHQLESDIVTIDYRVRGFTRDINGMKHFIDHEINSIQNFMSDDMKALYDMVDVNVYQENIFHTKMLLKEFDLKHYMFHTKPEDLTDSERQEITAALWKEMREIYYGRNMPAV [P0A7F6] | 3.29 ± 0.22 | 2.8 ± 0.15 | – | 4.12 ± 0.42 | 3.67 ± 0.29 | 3.3 ± 0.2 | 4.99 | 9.17 ± 0.37 | 2.928 ± 0.015 | 4.17 ± 0.036 | 4.78 ± 0.48 | 7.61 ± 1.4
MSIDRTSPLKPVSTVQPRETTDAPVTNSRAAKTTASTSTSVTLSDAQAKLMQPGSSDINLERVEALKLAIRNGELKMDTGKIADALINEAQQDLQSN [P0AEM4] | – | 0.693 ± 0.42 | – | – | – | – | 0.442 | 0.862 ± 0.19 | – | – | – | –
MATPYISMAGIGKSFGPVHALKSVNLTVYPGEIHALLGENGAGKSTLMKVLSGIHEPTKGTITINNISYNKLDHKLAAQLGIGIIYQELSVIDELTVLENLYIGRHLTKKICGVNIIDWREMRVRAAMMLLRVGLKVDLDEKVANLSISHKQMLEIAKTLMLDAKVIIMDEPTSSLTNKEVDYLFLIMNQLRKEGTAIVYISHKLAEIRRICDRYTVMKDGSSVCSGIVSDVSNDDIVRLMVGRELQNRFNAMKENVSNLAHETVFEVRNVTSRDRKKVRDISFSVCRGEILGFAGLVGSGRTELMNCLFGVDKRAGGEIRLNGKDISPRSPLDAVKKGMAYITESRRDNGFFPNFSIAQNMAISRSLKDGGYKGAMGLFHEVDEQRTAENQRELLALKCHSVNQNITELSGGNQQKVLISKWLCCCPEVIIFDEPTRGIDVGAKAEIYKVMRQLADDGKVILMVSSELPEIITVCDRIAVFCEGRLTQILTNRDDMSEEEIMAWALPQE | – | 2.84 ± 0.095 | – | – | – | > 8 | 5.265 ± 0.0056 | – | 6.14 | – | – | 10.6
MTILSLSRFMLAGVLLASFNASAIPGFWQQGYGQGNTEYSVTEASGKTFTINCTGNPDQNGFYQHSVFLTLADDKMVSSHDDDTTITVVMDHQQYIIPSSLGWRNGDNAWFDFISNISEAGQFDVYVNDHKAGTFTADRKNAEKVLSTLGDCSND | – | – | – | – | – | – | – | 5.33 | – | – | – | –
MAIRLYKLAVALGVFIVSAPAFSHGHHSHGKPLTEVEQKAANGVFDDANVQNRTLSDWDGVWQSVYPLLQSGKLDPVFQKKADADKTKTFAEIKDYYHKGYATDIEMIGIEDGIVEFHRNNETTSCKYDYDGYKILTYKSGKKGVRYLFECKDPESKAPKYIQFSDHIIAPRKSSHFHIFMGNDSQQSLLNEMENWPTYYPYQLSSEEVVEEMMSH | 7.32 ± 0.35 | 3.24 ± 0.14 | 5.56 | – | – | – | 6.23 ± 0.17 | 12.8 ± 0.55 | – | > 16 | 5.89 ± 0.14 | –
MTIFDNYEVWFVIGSQHLYGPETLRQVTQHAEHVVNALNTEAKLPCKLVLKPLGTTPDEITAICRDANYDDRCAGLVVWLHTFSPAKMWINGLTMLNKPLLQFHTQFNAALPWDSIDMDFMNLNQTAHGGREFGFIGARMRQQHAVVTGHWQDKQAHERIGSWMRQAVSKQDTRHLKVCRFGDNMREVAVTDGDKVAAQIKFGFSVNTWAVGDLVQVVNSISDGDVNALVDEYESCYTMTPATQIHGKKRQNVLEAARIELGMKRFLEQGGFHAFTTTFEDLHGLKQLPGLAVQRLMQQGYGFAGEGDWKTAALLRIMKVMSTGLQGGTSFMEDYTYHFEKGNDLVLGSHMLEVCPSIAAEEKPILDVQHLGIGGKDDPARLIFNTQTGPAIVASLIDLGDRYRLLVNCIDTVKTPHSLPKLPVANALWKAQPDLPTASEAWILAGGAHHTVFSHALNLNDMRQFAEMHDIEITVIDNDTRLPAFKDALRWNEVYYGFRR | 3.07 | 2.84 ± 0.36 | 3.94 ± 0.26 | 3.03 ± 0.081 | 3.405 ± 0.014 | 3.25 ± 0.17 | 5.77 ± 0.19 | 9.63 ± 1.2 | 3.26 | – | 5.05 ± 0.14 | 11.6 ± 1.2
MSGGLVTAAYIVAAILFIFSLAGLSKHETSRQGNNFGIAGMAIALIATIFGPDTGNVGWILLAMVIGGAIGIRLAKKVEMTEMPELVAILHSFVGLAAVLVGFNSYLHHDAGMAPILVNIHLTEVFLGIFIGAVTFTGSVVAFGKLCGKISSKPLMLPNRHKMNLAALVVSFLLLIVFVRTDSVGLQVLALLIMTAIALVFGWHLVASIGGADMPVVVSMLNSYSGWAAAAAGFMLSNDLLIVTGALVGSSGAILSYIMCKAMNRSFISVIAGGFGTDGSSTGDDQEVGEHREITAEETAELLKNSHSVIITPGYGMAVAQAQYPVAEITEKLRARGINVRFGIHPVAGRLPGHMNVLLAEAKVPYDIVLEMDEINDDFADTDTVLVIGANDTVNPAAQDDPKSPIAGMPVLEVWKAQNVIVFKRSMNTGYAGVQNPLFFKENTHMLFGDAKASVDAILKAL [P0AB67] | 6.72 ± 1.3 | 3.36 ± 0.3 | 6.55 ± 0.55 | 6.742 ± 0.019 | 5.57 ± 0.22 | 6.05 ± 0.38 | 6.08 ± 1.6 | 14.8 ± 0.91 | 6.02 ± 0.96 | 11.7 ± 0.14 | 6.5 ± 0.41 | 11.6 ± 1.1
MNIIAIMGPHGVFYKDEPIKELESALVAQGFQIIWPQNSVDLLKFIEHNPRICGVIFDWDEYSLDLCSDINQLNEYLPLYAFINTHSTMDVSVQDMRMALWFFEYALGQAEDIAIRMRQYTDEYLDNITPPFTKALFTYVKERKYTFCTPGHMGGTAYQKSPVGCLFYDFFGGNTLKADVSISVTELGSLLDHTGPHLEAEEYIARTFGAEQSYIVTNGTSTSNKIVGMYAAPSGSTLLIDRNCHKSLAHLLMMNDVVPVWLKPTRNALGILGGIPRREFTRDSIEEKVAATTQAQWPVHAVITNSTYDGLLYNTDWIKQTLDVPSIHFDSAWVPYTHFHPIYQGKSGMSGERVAGKVIFETQSTHKMLAALSQASLIHIKGEYDEEAFNEAFMMHTTTSPSYPIVASVETAAAMLRGNPGKRLINRSVERALHFRKEVQRLREESDGWFFDIWQPPQVDEAECWPVAPGEQWHGFNDADADHMFLDPVKVTILTPGMDEQGNMSEEGIPAALVAKFLDERGIVVEKTGPYNLLFLFSIGIDKTKAMGLLRGLTEFKRSYDLNLRIKNMLPDLYAEDPDFYRNMRIQDLAQGIHKLIRKHDLPGLMLRAFDTLPEMIMTPHQAWQRQIKGEVETIALEQLVGRVSANMILPYPPGVPLLMPGEMLTKESRTVLDFLLMLCSVGQHYPGFETDIHGAKQDEDGVYRVRVLKMAG | 5.32 ± 0.2 | 3.21 ± 0.1 | – | 5.56 ± 0.19 | 5.36 ± 0.26 | 5.38 ± 0.089 | 7.21 ± 0.98 | 10.7 ± 3.7 | 6.16 ± 1.5 | 10.7 ± 0.83 | 6.88 ± 1.5 | 11.92 ± 0.053

— the supplement of paper PMC11246515
